Consider one protein from FireProtDB (doi:10.1021/bi992119u).

The conditions of the data set: Pseudomonas putida; pH 7; 25 °C; Urea; CD; Sodium phosphate 25 mM; reversible: yes; whole UniProt chain shown.

B1: Steroid Delta-isomerase wild type, P07445 (protein)
chain: MNLPTAQEVQGLMARYIELVDVGDIEAIVQMYADDATVEDPFGQPPIHGREQIAAFYRQGLGGGKVRACLTGPVRASHNGCGAMPFRVEMVWNGQPCALDVIDVMRFDEHGRIQTMQAYWSEVNLSVREPQ
With B1, the denaturant m value was determined as 3.39 kcal/mol/M, the “denaturant midpoint (higher = more stable)” value worked out at 5.22 M and the unfolding free energy came out at 24.3 kcal/mol.
